# B1: pCDL-HERV WΔ120 aa: N-terminal 120 amino acid fragment of HERV-W ENV (amino acids 1 to 120, including signal peptide), expressed from a bicistronic cassette (protein)
# chain: APPPCRCMTSSSPYQEFLWRMQRPGNIDAPSYRSLSKGTPTFTAHTHMPRNCYHSATLCMHANTHYWTGKMINPSCPGGLGVTVCWTYFTQTGMSDGGGV
# Tested on: CD3+ Vβ+ T cells of peripheral blood lymphocytes (PBL)
# Test: T-cell enrichment assay with HtTA 4 cells transfected with bicistronic constructs
# Assay type: cell-based, human
# Details: PBL from a healthy donor; 9 days of specific stimulation; FIG. 18
molecule,measurement,value
B1,expansion of Vβ17+ T-cells,no expansion

# Source: patent US20070249808A1 (priority 2000, published 2007)
